Values belong to the molecule of their own block, whether it stands above or below them.
Columns and labels:
[1] = tested on: SUM1315 breast cancer model; experiment: hMN-15 pretreatment and CPT-11 in SUM1315 breast cancer model; format: in vivo; details: single agent; dosages as in Example 5
Method: The effects of pre-treatment with naked hMN-15 CEA Mab given 3 days prior to CPT-11 treatment is examined in a SUM1315 breast cancer model (Kuperwasser et al., Cancer Res. 2005, 65:6130-38). CPT-11 alone, hMN-15 alone, and combination therapy of hMN-15+CPT-11 where the hMN-15 is administered 3 days prior to the CPT-11 are compared. Dosages are as indicated in Example 5. hMN-15 alone increases median survival time by 21% under these conditions. CPT 11 alone increases survival by 76%. By contrast, the combination therapy where hMN-15 is administered 3 days prior to CPT-11 produces a median survival time increase of an additional 58% above CPT-11 alone. […] The synergistic effect of hMN-15 antibody with CPT-11 therapy is surprising.

[2] = tested on: RII and RI isoforms of PKA; details: Gold 2006; Stokka et al. 2006; cited from earlier work
[3] = tested on: liver metastases of sigmoid colon cancer; experiment: Sigmoid colon cancer therapy with hMN-15 and GM-CSF, patient two; format: in vivo, human; set-up: blood CEA titer / CEA titer: unit not given here
Method: patient two is a person who is refractive to chemotherapy with 5-fluorouracil and leucovorin to reduce their metastases to the liver found at the time of removal of their sigmoid colon cancer. […] Other radiological studies appear to be normal. Immunotherapy with humanized anti-CEA IgG (hMN-15) monoclonal antibody is begun on a weekly basis for 4 weeks, at an intravenous dose of 300 mg/m^2 infused over 2 hours. One week prior to hMN-15 therapy, the patient receives 2 subcutaneous injections of 200 μg/m^2 GM-CSF, 3 days apart, and continued twice weekly during the 4 weeks of hMN-15 therapy. After these four weeks, both hMN-15 and GM-CSF are given at the same doses every other week for an additional 3 months, but the dose of GM-CSF is increased to 250 μg/m^2. Prior to each administration of the humanized anti-CEA antibody, the patient is given diphenhydramine (50 mg orally), and acetaminophen (500 mg orally).

[4] = target: T1, CEA (Homo sapiens, UniProt P06731); experiment: Competitive CEA binding against HRP-labeled murine MN-15; details: competition with HRP-labeled murine MN-15
T1 sequence (P06731 35-676): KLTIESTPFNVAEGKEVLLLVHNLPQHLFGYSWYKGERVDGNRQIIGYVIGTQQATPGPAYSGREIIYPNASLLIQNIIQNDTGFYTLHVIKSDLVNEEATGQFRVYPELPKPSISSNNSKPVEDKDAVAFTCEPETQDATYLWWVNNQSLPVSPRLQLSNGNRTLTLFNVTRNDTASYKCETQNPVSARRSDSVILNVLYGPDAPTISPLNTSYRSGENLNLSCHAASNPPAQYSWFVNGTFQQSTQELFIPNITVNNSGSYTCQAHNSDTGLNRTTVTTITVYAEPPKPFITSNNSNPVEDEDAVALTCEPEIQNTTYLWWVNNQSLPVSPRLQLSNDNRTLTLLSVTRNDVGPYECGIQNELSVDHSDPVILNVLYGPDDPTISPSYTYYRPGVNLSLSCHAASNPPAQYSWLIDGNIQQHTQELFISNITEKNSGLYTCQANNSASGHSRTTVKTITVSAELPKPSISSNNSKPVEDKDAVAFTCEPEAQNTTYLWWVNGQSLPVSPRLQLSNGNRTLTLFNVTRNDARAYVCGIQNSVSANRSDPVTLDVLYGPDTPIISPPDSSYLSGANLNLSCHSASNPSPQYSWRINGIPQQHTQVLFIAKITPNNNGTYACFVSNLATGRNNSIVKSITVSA
Source text: To make a chimeric MN-15 antibody, the murine MN-15 variable region sequences were attached to human IgG1 constant region sequences, as described in Leung et al., Hybridoma 13:469 (1994). The sequences of the murine MN-15 VK (SEQ ID NO:9) and MN-15 VH (SEQ ID NO:10) used to construct the chimeric MN-15 (cMN-15) are shown in FIG. 2 and FIG. 3.

[5] = tested on: TT human medullary thyroid cell line tumors; experiment: hMN-15 and DTIC in TT medullary thyroid cancer xenografts; format: in vivo, nu/nu mice; details: at 7 weeks, DTIC 75 μg/dose, hMN-15 100 μg/dose
Method: Tumors are propagated in female nu/nu mice (Taconic Farms, Germantown, N.Y.) at 6-8 weeks of age by s.c. injection of 2×10^8 washed TT cells, which is propagated in tissue culture. Antibodies are injected i.v., via the lateral tail vein, into the tumor-bearing animals. Tumor size is monitored by weekly measurements of the length, width, and depth of the tumor using a caliper. Tumor volume is calculated as the product of the three measurements.
To study whether naked hMN-15 can add to the efficacy of DTIC, TT bearing nude mice are given DTIC (75 μg/dose) in combination with a course of treatment of the unlabeled MAb. DTIC is administered for 3 consecutive days at 75 μg/dose as one course, beginning 2 days after s.c. injection of TT cells. hMN-15 MAb treatment is initiated 3 days prior to the first dose of DTIC, at 100 μg/dose/day for 5 days in the first two weeks, then twice weekly.

[6] = tested on: liver and lung metastases of colon cancer; experiment: Combined immunotherapy and chemotherapy of metastatic colon cancer, patient one; format: in vivo, human; set-up: blood CEA titer: unit not given here
Method: patient one is a person presenting with liver and lung metastases of colon cancer following resection of the primary tumor. They are placed on a combined chemotherapy and immunotherapy protocol based on the Gramont schedule (de Gramont et al., J Clin Oncol. 2000, 18:2938-47), but with the addition of humanized anti-CEA monoclonal antibody IgG1 (hMN-15). Prior to infusions of the antibody, they receive 50 mg orally of diphenhydramine and 500 mg orally of acetaminophen. They receive a 2-hr infusion of leucovorin (200 mg/m^2/day) followed by a bolus of 5-fluorouracil (400 mg/m^2/day) and 22-hour continuous infusion of 5-fluorouracil (600 mg/m^2/day) for 2 consecutive days every 2 weeks, together with oxaliplatin at 85 mg/m^2 as a 2-hr infusion in 250 mol of dextrose 5%, concurrent with leukovorin on day 1 (FOLFOX4 schedule). The patient also receives anti-emetic prophylaxis with a 5-hydroxyltryptamine-3-receptor antagonist. One week prior to this 2-week chemotherapy cycle, hMN-15 monoclonal anti-CEA antibody is infused over 2 hrs at a dose of 200 mg/m^2, and repeated each week of the 2-week chemotherapy cycle, and every week thereafter for the next month with another chemotherapy cycle. Also, a subcutaneous dose of 5 μg/kg/day of G-CSF is administered once weekly beginning with the second chemotherapy cycle, and continued at this dose for the duration of immunotherapy with hMN-15 antibody, over the next 3 months.
A total of 5 cycles of chemotherapy is performed with continued administration of hMN-15 antibody and filgrastim. Thereafter, hMN-15 and filgrastim therapy is given, at the same doses, every other week for the next 3 months, without chemotherapy. The patient is staged 2 months later, and their liver and lung metastases show shrinkage by computed tomography measurements of >80 percent of disease measured in the liver and lungs, as compared to the measurements made prior to therapy. […] They are followed over the next 6 months, and their disease appears to be stable, with no new lesions found and no increase in the disease remaining in the liver and lungs. […] The patient also experiences diarrhea, mucositis, nausea and vomiting during the chemotherapy cycles, but these are not excessive.

[7] = hMN-15 with GM-CSF, restaging after another 2 months

Molecule: CCc1c2c(nc3ccc(OC(=O)N4CCC(N5CCCCC5)CC4)cc13)-c1cc3c(c(=O)n1C2)COC(=O)[C@]3(O)CC [CPT-11, irinotecan, reference compound]
increase of median survival time [1]: 76%

Molecule: DLIEEAASRIVDAVIEQVKAAGAY [Ht-31]
selectivity / affinity for RII versus RI isoform of PKA [2]: greater affinity for the RII isoform of PKA

Molecule: FEELAWKIAKMIWSDVFQQC [PV-38]
selectivity / affinity for RII versus RI isoform of PKA [2]: higher affinity for RI

Molecule: LEQYANQLADQIIKEATE [RIAD]
selectivity / affinity for RII versus RI isoform of PKA [2]: higher affinity for RI

Molecule: QIEYVAKQIVDYAIHQA [SuperAKAP-IS]
selectivity / affinity for RII versus RI isoform of PKA [2]: five order of magnitude higher selectivity for the RII isoform of PKA compared with the RI isoform

affinity for CEA compared with parent murine MN-15 [4]: virtually identical
dissociation constant [4]: nanomolar range
B1: hMN-15: humanized MN-15, VK SEQ ID NO:7 and VH SEQ ID NO:8, REI/KOL frameworks, human IgG1 (antibody, V domains shown)
VH: QVQLVESGGGVVQPGRSLRLSCSSSGFALTDYYMSWVRQAPGKGLEWLGFIANKANGHTTDYSPSVKGRFTISRDNSKNTLFLQMDSLRPEDTGVYFCARDMGIRWNFDVWGQGTPVTVSS
VL: DIQLTQSPSSLSASVGDRVTMTCSASSRVSYIHWYQQKPGKAPKRWIYGTSTLASGVPARFSGSGSGTDFTFTISSLQPEDIATYYCQQWSYNPPTFGQGTKVEIKR
modifications: human IgG1 constant regions
decrease of sum of the diameters of the measurable tumors in the liver ([3]; hMN-15 300 mg/m^2 with GM-CSF, first restaging): 40%
adverse reactions ([3]; hMN-15 with GM-CSF): no adverse reactions to the therapy
blood CEA titer ([3]; hMN-15 with GM-CSF, first restaging, at presentation 34 ng/mol): 18
CEA titer [3, 7]: 10
tumor decrease over the pre-therapy baseline [3, 7]: > 65%
mice with no palpable tumor ([5]; untreated 0/10): 0/10
mean tumor volume ([5]; untreated 1.578+0.959): 0.899+0.545 cm^3
increase of median survival time [1]: 21%
shrinkage of liver and lung metastases by computed tomography ([6]; hMN-15 200 mg/m^2 with FOLFOX4 schedule and G-CSF (filgrastim)): > 80%
adverse events when only immunotherapy is administered ([6]; hMN-15 and filgrastim without chemotherapy): does not experience any adverse events
predominant toxicity ([6]; hMN-15 with FOLFOX4 and filgrastim, during chemotherapy cycles): peripheral sensory neuropathy
blood CEA titer ([6]; hMN-15 with FOLFOX4 and filgrastim, pre-therapy level 63 ng/mol): 9

affinity for CEA compared with parent murine MN-15 [4]: virtually identical
dissociation constant [4]: nanomolar range
B2: cMN-15: murine MN-15 variable regions (SEQ ID NO:9, SEQ ID NO:10) attached to human IgG1 constant regions (antibody, listed as Mus sp., V domains shown)
VL: DIQLTQSPAIMSASPGEKVTMTCSASSRVSYIHWYQQKSGTSPKRWIYGTSTLASGVPARFSGSGSGTSYSLTISSMEAEDAATYYCQQWSYNPPTFGAGTKLELKR
VH: EVRLVESGGGLVQGPGSLRLSCAASGFALTDYYMSWVRQSPGKTLEWLGFIANKANGHTTDYSPSVKGRFTISRDNSQTILYLQMNTLRTEDSATYYCARDMGIRWNFDVWGQGTTVTVSS
modifications: human IgG1 constant regions
